Data on ten molecules can be found in paper PMC10079162 (Nature Communications, 2023).

B1: CR3022 M40P S56G Q67R; T59K (output_8) (antibody, V domains shown)
VH: QMQLVQSGTEVKKPGESLKISCKGSGYGFITYWIGWVRQPPGKGLEWMGIIYPGDGETRYSPSFQGRVTISADKSINTAYLQWSSLKASDTAIYYCAGGSGISTPMDVWGQGTTVTVVS
VL: not shown
B2: Nb.b201 WT (VHH)
VHH: QVQLQESGGGLVQAGGSLRLSCAASGYISDAYYMGWYRQAPGKEREFVATITHGTNTYYADSVKGRFTISRDNAKNTVYLQMNSLKPEDTAVYYCAVLETRSYSFRYWGQGTQVTVSS
notes: source: HEK293 cells; obtained at high purity
B3: Nb.b201 T55D (VHH)
VHH: B2 VHH with T55D
notes: as for B2
B4: Nb.b201 H53P T55G (VHH)
VHH: B2 VHH with H53P, T55G
notes: as for B2
B5: Nb.b201 H53R (VHH)
VHH: B2 VHH with H53R
notes: as for B2
B6: Nb.b201 A31D T55G (VHH)
VHH: B2 VHH with A31D, T55G
notes: as for B2
B7: Nb.b201 T55G (VHH)
VHH: B2 VHH with T55G
notes: as for B2
B8: Nb.b201 A31D (VHH)
VHH: B2 VHH with A31D
notes: as for B2
B9: Nb.b201 A31D T55D (VHH)
VHH: B2 VHH with A31D, T55D
notes: as for B2
B10: Nb.b201 H53P (VHH)
VHH: B2 VHH with H53P
notes: as for B2

Substitutions are numbered along the chain they refer to. Names and notes keep the numbering of the source.

The target of one experiment is SARS CoV-2 RBD (SARS-CoV-2, strain  …, UniProt P0DTC2).
Assay: not given
Settings: not given
Regarding B1, the binding result is recorded as “binds”.

In another experiment the target is T1, human serum albumin (Homo sapiens, UniProt P02768).
T1 construct: also called HSA
Put plainly: BLI; format and conditions not told in the main text (methods are in the Supplementary Materials). Particulars: both partners purified. (Biolayer interferometry detects binding as a change in optical thickness at a sensor tip.)
B2: the binding result is “binds”.
Same read-out and setting: the result for B3 reads “binds”; that for B4, “binds”.
In the case of B5, the binding result is given as “binds”.
For the molecule B6, the binding result is on record as “binds”.
The same measure, in the same setting: with B7 the entry was “binds”.
Consider B8, for which the binding result is “binds”.
The same measure, in the same setting: with B9 the entry was “binds”.
As to B10, the binding result is listed as “binds”.
